± gives the uncertainty stated by the source.
Test: self-splicing fitness, log relative to wild type (ln ratio); higher = more splicing; Tetrahymena group I intron in knt gene, E. coli kanamycin selection, DiMSum; sequences stand for … in CUCUCU…GGAGGGAAAAGUUAUCAGGCAUGCACCUGGUAGCUAGUCUUUAAACCAAUAGAUUGCAUCGGUUUAAAAGGCAAGACCGUCAAAUUGCGGGAAAGGGGUCAACAGCCGUUCAGUACCAAGUCUCAGGGGAAACUUUGAGAUGGCCUUGCAAAGGGUAUGGUAAUAAGCUGACGGACAUGGUCCUAACCACGCAGCCAAGUCCUAAGUCAACAGAUCUUCUGUUGAUAUGGAUGCAGUUCACAGACUAAAUGUCGGUCGGGGAAGAUGUAUUCUUCUCAUAAGAUAUAGUCGGACCUCUCCUUAAUGGGAGCUAGCGGAUGAAGUGAUGCAACACUGGAGCCGCUGGGAACUAAUUUGUAUGCGAAAGUAUAUUGAUUAGUUUUGGAGUACUCGUGGUCG
Procedure, shortened: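 DiMSum derived fitness as the error-weighted combination of fold changes across replicates, kanamycin versus no kanamycin, normalised to wild type. E. coli BL21(DE3) held the library, which randomised all eight P1ex-region intron nucleotides within the knt kanamycin-resistance gene on pET-22b(+). Six replicate transformations grew overnight at 37°C or 30°C on LB agar with or without 25 μg/mL kanamycin, also containing 100 μg/mL carbenicillin, 50 μM IPTG and 0.2% rhamnose, and pooled colonies were amplicon-sequenced on an Illumina HiSeq 2500.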

Sequence	self-splicing fitness (ln) (30 °C)	self-splicing fitness (ln) (37 °C)
GUUCAGCAAUAUUACGUUCC	-2.79 ± 0.29	-1.78 ± 0.41
GUUCAGCAAUAUUACGUUUG	-2.75 ± 0.15	-1.22 ± 0.14
GUUGAGCAAUAUUACGACCU	-2.63 ± 0.16	-1.56 ± 0.17
GUUGAGCAAUAUUACGACGA	-3.3 ± 0.32	-2.2 ± 0.27
GUUGAGCAAUAUUACGACGC	-1.95 ± 0.22	1.05 ± 0.26
GUUGAGCAAUAUUACGACUG	-2.97 ± 0.32	0.138 ± 0.22
GUUGAGCAAUAUUACGCACC	-2.94 ± 0.16	-1.67 ± 0.14
GUUGAGCAAUAUUACGGCGA	-2.81 ± 0.23	-2.44 ± 0.2
GUUGAGCAAUAUUACGGGCA	-3.29 ± 0.23	-0.813 ± 0.16
GUUGAGCAAUAUUACGGGUG	-3.62 ± 0.38	-2.85 ± 0.47
GUUGAGCAAUAUUACGGUUG	-3.56 ± 0.35	-1.38 ± 0.38
GUUGAGCAAUAUUACGUAAG	-2.08 ± 0.18	-1.17 ± 0.19
GUUGAGCAAUAUUACGUCGU	-3.25 ± 0.39	
GUUGAGCAAUAUUACGUGAA		-1.76 ± 0.22
GUUGAGCAAUAUUACGUGCC	-3.02 ± 0.45	
GUUGAGCAAUAUUACGUGUU	-3.15 ± 0.25	-2.29 ± 0.3
GUUGAGCAAUAUUACGUUAC	-2.2 ± 0.13	-2.21 ± 0.24
GUUUAGCAAUAUUACGAAUC		-0.202 ± 0.45
GUUUAGCAAUAUUACGACUA	-0.518 ± 0.18	0.0789 ± 0.15
GUUUAGCAAUAUUACGCCCA	-1.48 ± 0.19	-0.953 ± 0.33
GUUUAGCAAUAUUACGCCGG	-2.37 ± 0.45	
GUUUAGCAAUAUUACGCCUC	0.228 ± 0.22	-0.7 ± 0.23
GUUUAGCAAUAUUACGCCUG	-2.62 ± 0.25	-1.39 ± 0.26
GUUUAGCAAUAUUACGGAAA	-2.38 ± 0.37	-2.07 ± 0.28
GUUUAGCAAUAUUACGGAUG	-3.5 ± 0.3	-1.57 ± 0.22

Sequence	self-splicing fitness (ln) (30 °C)	self-splicing fitness (ln) (37 °C)
GUUUAGCAAUAUUACGGCAU	0.0778 ± 0.14	-0.182 ± 0.14
GUUUAGCAAUAUUACGGCCA	-1.35 ± 0.14	-0.725 ± 0.15
GUUUAGCAAUAUUACGGCUA	-1.45 ± 0.33	-1.68 ± 0.31
GUUUAGCAAUAUUACGGGAC		-1.98 ± 0.39
GUUUAGCAAUAUUACGGGUC	-3.6 ± 0.47	-1.73 ± 0.2
GUUUAGCAAUAUUACGGUAC	-1.22 ± 0.12	-2.01 ± 0.15
GUUUAGCAAUAUUACGUCUG	-2.05 ± 0.18	-1.84 ± 0.3
GUUUAGCAAUAUUACGUGAU	-0.892 ± 0.17	-0.419 ± 0.12
GUUUAGCAAUAUUACGUUAC	-4.44 ± 0.28	-2.33 ± 0.18
GUUUAGCAAUAUUACGUUAU	-2.88 ± 0.23	-0.357 ± 0.16
UAAAAGCAAUAUUACGAAGU	-2.95 ± 0.29	-2.23 ± 0.21
UAAAAGCAAUAUUACGAGUG	-0.615 ± 0.057	0.0674 ± 0.084
UAAAAGCAAUAUUACGCAUA	-1.44 ± 0.088	-0.782 ± 0.1
UAAAAGCAAUAUUACGCCAG	-1.34 ± 0.12	-0.458 ± 0.17
UAAAAGCAAUAUUACGCCCU	-0.622 ± 0.095	0.457 ± 0.15
UAAAAGCAAUAUUACGCCGG	-0.134 ± 0.11	0.0922 ± 0.14
UAAAAGCAAUAUUACGCUUA	-1.53 ± 0.11	-1.03 ± 0.12
UAAAAGCAAUAUUACGGAGA	-2.31 ± 0.27	-1.83 ± 0.27
UAAAAGCAAUAUUACGGAGC	-4.1 ± 0.25	-3.36 ± 0.28
UAAAAGCAAUAUUACGGCAU	-0.376 ± 0.091	-0.235 ± 0.12
UAAAAGCAAUAUUACGGGAA	-2.63 ± 0.2	-1.18 ± 0.12
UAAAAGCAAUAUUACGGUGU	-3.4 ± 0.13	-2.83 ± 0.15
UAAAAGCAAUAUUACGUACC	-2.18 ± 0.25	-0.361 ± 0.21
UAAAAGCAAUAUUACGUAUU	-2.24 ± 0.14	-1.88 ± 0.19
UAAAAGCAAUAUUACGUCUA	-0.487 ± 0.068	0.337 ± 0.097

Sequence	self-splicing fitness (ln) (30 °C)	self-splicing fitness (ln) (37 °C)
UAAAAGCAAUAUUACGUCUG	-0.0205 ± 0.058	0.201 ± 0.075
UAAAAGCAAUAUUACGUGCG	-0.348 ± 0.07	-0.119 ± 0.09
UAAAAGCAAUAUUACGUGGA	-2.94 ± 0.13	-1.52 ± 0.1
UAAAAGCAAUAUUACGUGGG	-3.67 ± 0.23	-1.44 ± 0.13
UAAAAGCAAUAUUACGUUAC	-3.71 ± 0.22	-2.78 ± 0.21
UAACAGCAAUAUUACGAAAU	-3.46 ± 0.14	-2.52 ± 0.18
UAACAGCAAUAUUACGACGA	0.245 ± 0.069	0.319 ± 0.083
UAACAGCAAUAUUACGAGAA	-2.22 ± 0.22	-2.07 ± 0.23
UAACAGCAAUAUUACGAGAG	-3.21 ± 0.18	-2.46 ± 0.13
UAACAGCAAUAUUACGAGGA	-3.13 ± 0.2	-1.49 ± 0.14
UAACAGCAAUAUUACGAUAU	-2.28 ± 0.18	-1.28 ± 0.2
UAACAGCAAUAUUACGCAUG	-1.43 ± 0.086	-0.695 ± 0.099
UAACAGCAAUAUUACGCCCU	-1.18 ± 0.08	0.471 ± 0.12
UAACAGCAAUAUUACGCCUA	-0.308 ± 0.064	0.598 ± 0.083
UAACAGCAAUAUUACGCCUG	-0.264 ± 0.085	0.182 ± 0.11
UAACAGCAAUAUUACGCGAA	-1.9 ± 0.11	-0.949 ± 0.11
UAACAGCAAUAUUACGCUAU	-2.86 ± 0.12	-1.82 ± 0.11
UAACAGCAAUAUUACGCUGA	-3.33 ± 0.2	-1.61 ± 0.1
UAACAGCAAUAUUACGGAAA	-2.91 ± 0.23	-1.11 ± 0.14
UAACAGCAAUAUUACGGAGG	-3.85 ± 0.16	-1.87 ± 0.091
UAACAGCAAUAUUACGGCAG	-0.752 ± 0.077	-0.814 ± 0.084
UAACAGCAAUAUUACGGGCA	-0.826 ± 0.085	-0.324 ± 0.078
UAACAGCAAUAUUACGGGGA	-2.36 ± 0.15	-2.1 ± 0.097
UAACAGCAAUAUUACGGUGU	-2.93 ± 0.11	-2.01 ± 0.12
UAACAGCAAUAUUACGUCAC	-2.97 ± 0.15	-1.82 ± 0.16

Sequence	self-splicing fitness (ln) (30 °C)	self-splicing fitness (ln) (37 °C)
UAACAGCAAUAUUACGUCAU	-3.81 ± 0.16	-1.74 ± 0.15
UAACAGCAAUAUUACGUCCA	-0.357 ± 0.091	-0.0151 ± 0.12
UAACAGCAAUAUUACGUUGA	-2.95 ± 0.14	-1.34 ± 0.1
UAACAGCAAUAUUACGUUUA	-0.893 ± 0.063	-0.563 ± 0.071
UAACAGCAAUAUUACGUUUC	-4.16 ± 0.26	-2.44 ± 0.23
UAAGAGCAAUAUUACGAAUG	-2.32 ± 0.17	-1.52 ± 0.25
UAAGAGCAAUAUUACGACUG	-2 ± 0.14	-0.767 ± 0.15
UAAGAGCAAUAUUACGAGAU	-3.76 ± 0.33	-2.32 ± 0.31
UAAGAGCAAUAUUACGAGUC	-3.17 ± 0.49	
UAAGAGCAAUAUUACGAUAC	-3.55 ± 0.26	-3.09 ± 0.4
UAAGAGCAAUAUUACGCAUU	-2.87 ± 0.22	-2.32 ± 0.26
UAAGAGCAAUAUUACGCUCA	-2.37 ± 0.23	-1.54 ± 0.18
UAAGAGCAAUAUUACGGAUG	-2.57 ± 0.35	-2.59 ± 0.49
UAAGAGCAAUAUUACGGCGG	-2.73 ± 0.22	-1.62 ± 0.22
UAAGAGCAAUAUUACGGGUG	-3.49 ± 0.18	-1.06 ± 0.13
UAAGAGCAAUAUUACGGUAC		-2.25 ± 0.41
UAAGAGCAAUAUUACGGUAU	-3.87 ± 0.23	-2.27 ± 0.18
UAAGAGCAAUAUUACGGUUU	-3.48 ± 0.24	-1.85 ± 0.23
UAAGAGCAAUAUUACGUCCG	-3.27 ± 0.41	
UAAGAGCAAUAUUACGUGCC	-3.13 ± 0.15	-3.48 ± 0.34
UAAGAGCAAUAUUACGUGGG	-3.82 ± 0.42	-2.68 ± 0.27
UAAUAGCAAUAUUACGAAAG	-1.92 ± 0.19	-2.03 ± 0.31
UAAUAGCAAUAUUACGACAG	-2.3 ± 0.19	-0.262 ± 0.17

Source: the supplement of paper PMC7877785
